Changes are numbered by the printed parent chain. Read-outs that look alike come from different tables or passages of the source.
B1: NOV3840 (antibody, human IgG1, lambda, V domains shown)
VH: EVQLLESGGGLVQPGGSRRLSCAASGFTFSYYGMNWVRQAPGKGLEWVSGITNSGSITYYADSVKGRFSISRDNSKNTLFLQMNSLRAEDTAVYYCAKVGVRSSSGMWDLDYWGQGTLVTVSS
VL: SYVLTQPPSVSVAPGQTARLSCGGNNIGSKSLQWYQQKPGQAPVLVVNDDSDRPSGIPERFSGSNSGNTATLTISRVEAGDEADYYCQVWDTSSDHVVFGGGTKLTVLG
notes: Full human IgG1 (lambda) expressed in CHO cells
B2: NOV3841 (antibody, human IgG1, lambda, V domains shown)
VH: B1 VH with N53Q, S63T
VL: B1 VL with D50E
notes: as for B1
B3: NOV3842 (antibody, human IgG1, lambda, V domains shown)
VH: B1 VH with S54V, S63T
VL: B1 VL with D50E
notes: as for B1
B4: NOV3837 (antibody, human IgG1, kappa, V domains shown)
VH: QVQLQESGGRLVRPGGSLRLSCAASGFIFTDYYMTWIRQAPGKGPEWIAFITSGGETTYYADSVKGRFTISRDNAKKSLFLQMYSLRADDTAVYYCVRAHFDGYQYDTRGDFTYYFDNWGLGTLVSVSS
VL: EIVMTQSPATLSVSPGERVTLSCRASQSVSSSLAWYQQKPGRAPRLLIYGASTRATGVPARFSGGGSGTDFTLTISSLQSEDFAVYYCHQYINWPPGDTFGQGTRLDIKR
notes: Full human IgG1 (kappa) expressed in CHO cells
B5: NOV3838 (antibody, human IgG1, kappa, V domains shown)
VH: B4 VH with G103L
VL: B4 VL
notes: as for B4
B6: NOV3839 (antibody, human IgG1, kappa, V domains shown)
VH: B4 VH with G103I
VL: B4 VL
notes: as for B4

What was measured:
[1] = molecular target: HBsAg of HBV genotype D, serotype ayw (Hepatitis B virus); assay: cell-based or functional assay
[2] = molecular target: T1, HBsAg of HBV genotype A (AY934772) (Hepatitis B virus); assay: sandwich ELISA, captured HBsAg from culture supernatant
T1 construct: captured from supernatant by horse polyclonal anti-HBsAg
Procedure: (§1) The binding of anti-HBsAg antibodies to the 4 major genotypes (A-D) of HBV were analyzed by sandwich ELISA.

[3] = molecular target: HBsAg of HBV genotype B (AF 121245) (Hepatitis B virus); assay: as above
Procedure: as §1

[4] = molecular target: HBsAg of HBV genotype C (DQ087960) (Hepatitis B virus); assay: as above
Procedure: as §1

[5] = molecular target: HBsAg clinical mutation D144A (Hepatitis B virus); assay: sandwich ELISA, captured mutant HBsAg from culture supernatant;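 also: Anti-HBsAg antibodies tested for binding to mutant HBsAg secreted by stably transfected cell lines, supernatant incubated 1 h on antibody-coated plates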
Procedure: (§2) The binding of anti-HBsAg antibodies to 4 well characterized vaccine and/or HBsAg clinical mutations of HBsAg (G145R, D144A, T126S, M133L) were analyzed by sandwich ELISA. […] Supernatant collected from HBsAg cell-culture derived clinical mutation stables (G145R, D144A, T126S, M133L) was allowed to bind antibody coated plates for 1 hour.

[6] = molecular target: HBsAg clinical mutation T126S (Hepatitis B virus); assay: as above
Procedure: as §2

[7] = molecular target: HBsAg clinical mutation M133L (Hepatitis B virus); assay: as above
Procedure: as §2

HBsAg AD serotype [8] = molecular target: T2, HBsAg AD serotype (Hepatitis B virus); assay: SPR Biacore T200, HBsAg particles immobilized, antibody as analyte, 1:1 fit;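 also: Anti-HBsAg antibodies assessed for binding against both major HBsAg serotypes, AY and AD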
T2 construct: also called HBsAg serotype AD
Procedure: (§3) Binding affinity interaction (KD) of the anti-HBsAg antibodies with the two major serotypes of HBsAg, AY and AD, was determined utilizing surface plasma resonance (SPR) technology.

HBsAg AY serotype [9] = molecular target: T3, HBsAg AY serotype (Hepatitis B virus); assay: as above
T3 construct: also called HBsAg serotype AY
Procedure: as §3

[10] = molecular target: HBsAg clinical mutation D144A (Hepatitis B virus); assay: sandwich ELISA, mutant HBsAg from cell supernatant captured on horse polyclonal anti-HBsAg, antibody titrated, absorbance 450 nm
[11] = molecular target: HBsAg clinical mutation T126S (Hepatitis B virus); assay: as above
[12] = molecular target: HBsAg clinical mutation M133L (Hepatitis B virus); assay: as above
HBsAg AD serotype [13] = molecular target: T2, HBsAg AD serotype; assay: SPR epitope binning; competitor (1st, saturating Ab): HBC34
Procedure: (§4) Epitope binning of anti-HBsAg antibodies with the two major serotypes of HBsAg, AY and AD, was performed utilizing surface plasmon resonance (SPR) technology. […] Each pair of antibodies was tested for blocking one another's binding to their epitope on the antigen by subsequently applying one antibody as first (saturating) followed by the other as second (competing) antibody and vice versa. Saturating antibodies were applied at 500 nM for 120s. Competing antibodies utilized the same conditions but were supplemented with the first antibody at 500 nM to maintain saturation. Binding signals were corrected by subtracting the reference cell signal. Specific binding of the competing antibody in presence of the saturating antibody was calculated by subtracting a saturating antibody plus buffer reference signal. All signals were normalized to 100 RU of immobilized ligand. The specific binding signal obtained from the application as competing antibody was expressed as percentage of the binding signal obtained from the application of the same antibody as saturating (first) antibody, the signal of which was regarded 100% binding.

HBsAg AY serotype [14] = molecular target: T3, HBsAg AY serotype; assay: as above
Procedure: as §4

HBsAg AD serotype [15] = molecular target: T2, HBsAg AD serotype; assay: SPR epitope binning; competitor (1st, saturating Ab): CR8087
Procedure: as §4

HBsAg AY serotype [16] = molecular target: T3, HBsAg AY serotype; assay: as above
Procedure: as §4

[17] = molecular target: HBsAg clinical mutation G145R (Hepatitis B virus); assay: sandwich ELISA, captured mutant HBsAg from culture supernatant;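 also: Anti-HBsAg antibodies tested for binding to mutant HBsAg secreted by stably transfected cell lines, supernatant incubated 1 h on antibody-coated plates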
Procedure: as §2

[18] = molecular target: HBsAg clinical mutation T126S (Hepatitis B virus); assay: sandwich ELISA, mutant HBsAg from cell supernatant captured on horse polyclonal anti-HBsAg, antibody titrated, absorbance 450 nm; remark: listed apart in the source
[19] = molecular target: HBsAg clinical mutation M133L (Hepatitis B virus); assay: as above; remark: listed apart in the source
[20] = molecular target: HBsAg clinical mutation D144A (Hepatitis B virus); assay: as above; remark: listed apart in the source
[21] = molecular target: HBsAg clinical mutation T126S (Hepatitis B virus); assay: as above; remark: listed apart in the source
[22] = molecular target: HBsAg clinical mutation M133L (Hepatitis B virus); assay: as above; remark: listed apart in the source
[23] = molecular target: HBsAg clinical mutation T126S (Hepatitis B virus); assay: as above; remark: listed apart in the source
[24] = molecular target: HBsAg clinical mutation M133L (Hepatitis B virus); assay: as above; remark: listed apart in the source
[25] = molecular target: HBsAg clinical mutation T126S (Hepatitis B virus); assay: as above; remark: listed apart in the source
[26] = molecular target: HBsAg clinical mutation M133L (Hepatitis B virus); assay: as above; remark: listed apart in the source
[27] = molecular target: HBsAg clinical mutation T126S (Hepatitis B virus); assay: as above; remark: listed apart in the source
[28] = molecular target: HBsAg clinical mutation M133L (Hepatitis B virus); assay: as above; remark: listed apart in the source

Binder | Virus neutralization EC50 [1] [nM] | IC50 [2] [nM] | IC50 [3] [nM] | IC50 [4] [nM] | IC50 [5] [nM] | IC50 [6] [nM] | IC50 [7] [nM] | Kd (HBsAg AD serotype [8]) [nM] | Kd (HBsAg AY serotype [9]) [nM] | binding of second antibody (HBsAg AD serotype [13]) | binding of second antibody (HBsAg AY serotype [14]) | binding of second antibody (HBsAg AD serotype [15]) | binding of second antibody (HBsAg AY serotype [16]) | IC50 [17] [nM] | also measured
B1 | 0.056 | 0.023 | 0.022 | 0.016 | 0.012 | 0.01 | 0.013 | 0.45 | 0.38 | – | – | – | – | – | EC50 (read off the curve) [10]: ~0.02 nM; EC50 (read off the curve) [11]: ~0.02 nM; EC50 (read off the curve) [12]: ~0.02 nM
B2 | 0.74 | 1.1 | 0.35 | 2 | 7.8 | 0.079 | 0.044 | 0.91 | 0.61 | 145 % of its binding as first antibody | 107 % of its binding as first antibody | 282 % of its binding as first antibody | 129 % of its binding as first antibody | > 67 | EC50 (read off the curve) [18]: ~0.07 nM; EC50 (read off the curve) [19]: ~0.06 nM
B3 | 0.23 | 0.46 | 0.28 | 0.75 | 0.12 | 0.042 | 0.084 | 0.13 | 0.15 | 115 % of its binding as first antibody | 103 % of its binding as first antibody | 216 % of its binding as first antibody | 118 % of its binding as first antibody | > 67 | EC50 (read off the curve) [20]: ~0.1 nM; EC50 (read off the curve) [21]: ~0.05 nM; EC50 (read off the curve) [22]: ~0.05 nM
B4 | 0.049 | 0.093 | 0.069 | 0.17 | 0.27 | 0.03 | 0.035 | 0.67 | 0.75 | – | – | – | – | – | EC50 (read off the curve) [23]: ~0.03 nM; EC50 (read off the curve) [24]: ~0.04 nM
B5 | 0.12 | 0.2 | 0.05 | 0.21 | 6.1 | 0.11 | 0.15 | 0.68 | 0.6 | – | – | – | – | 5.2 | EC50 (read off the curve) [25]: ~0.1 nM; EC50 (read off the curve) [26]: ~0.2 nM
B6 | 0.09 | 1.6 | 0.17 | 0.37 | 3.6 | 0.088 | 0.085 | 0.59 | 2.4 | – | – | – | – | 8.6 | EC50 (read off the curve) [27]: ~0.1 nM; EC50 (read off the curve) [28]: ~0.1 nM

From patent publication US20240317840A1 (Novartis, published 2024)
